T1: human ErbB3 15mer peptide QCNGHCFGPNPNQCC (human)
T1 construct: One of 158 15mer peptides of human ErbB3 overlapping by 11 residues (Jerini Peptide Technologies), coated on the ELISA plate
T1 peptide: QCNGHCFGPNPNQCC


What was measured:
[1] = target: T1, human ErbB3 15mer peptide …; test: ELISA on plate-coated 15mer peptides, A3 at 1 µg/ml
Protocol: To identify the epitope recognized by A3 antibody, a human ErbB3 peptide collection consisting of 158 15mer peptides overlapping by 11 residues (Jerini Peptide Technologies, Berlin, Germany) has been utilized. Each peptide was resuspended in DMSO at 40 mg/ml and diluted in sodium carbonate buffer (10 mM, pH 9.6) at 1 μg/ml in 96well plates (Nunc Maxisorp) at a volume of 100 μl/well and incubated over night at 4° C. Human ErbB3 ECD-Fc protein (RnD) and buffer coated wells were used as positive and negative controls of the assay, respectively. The day after, plates were washed with 200 μl PBS 1× pH 7.4 and blocked with PBS 5% BSA for 2 hr at room temperature. After three washes with PBS, 0.05% Tween20 (PBST), plates were incubated for 2 hours at room temperature with A3 antibody diluted at 1 μg/ml in PBST, 1% BSA for 2 hours at room temperature. Plates were then washed three times in PBST and then incubated with 1/5000 diluted goat anti-mouse IgG HRP conjugated (Abcam) for one hour. After three washing in PBST, 100 μl/well 3, 3′, 5, 5′-Tetramethylbenzidine (TMB) Liquid Substrate (Sigma) were added and the reaction stopped 20 minutes later with 50 μl/well Stop Reagent for TMB Substrate (Sigma). OD₄₅₀ was determined at an ELISA reader (Perkin Elmer).

[2] = target: T2, Recombinant protein HER3-ECD-Fc (RnD Systems) (human, UniProt P21860 20-643); test: competition ELISA (NRG Ligand Blocking): HER3-ECD-Fc on the plate, antibody, then 10 nM NRG-1β, bound NRG detected
T2 construct: extracellular domain; also called Human ErbB3 ECD-Fc protein (RnD); not shown: Fc part of the bought fusion

mouse HER3 [3] = target: T3, mouse HER3 (mouse, UniProt Q61526 20-1339); test: flow cytometry on CHO cells transiently transfected with mouse HER3, antibody at 10 µg/ml
T3 construct: whole, on cells; also called murine HER3

HER4 = target: T4, HER4 (human, UniProt Q15303 26-1308); test: flow cytometry on transiently transfected CHO cells
T4 construct: whole, on cells; also called ErbB4

HER1/EGFR = target: T5, HER1/EGFR (human, UniProt P00533 25-1210); test: as above
T5 construct: whole, on cells

HER2 = target: T6, HER2 (human, UniProt P04626 23-1255); test: as above
T6 construct: whole, on cells; also called ErbB2

[4] = target: T2, Recombinant protein HER3-ECD-Fc (RnD …); test: SPR, Biacore T100: antibody captured on an anti-Fc CM5 chip, HER3-ECD-Fc injected as analyte
Protocol: Among the hybridomas described above, two antibodies, A3 and A4, were further selected for a biochemical and functional characterization. In particular, the following assays have been performed: [0174] Bioacore analysis. Affinity for HER3 and kₒₙ/koff were determined by Surface Plasmon Resonance using a Biacore T100 instrument. A biosensor chip CM5 (GE Healthcare) was covalently bound to an anti-Fc (8000 RU) and then treated with antibodies at different concentrations (<1000 RU). Recombinant protein HER3-ECD-Fc (RnD Systems) in HBS-EP buffer at the analyte concentration 1:1 was injected for 2 minutes at 30 μl/min, followed by a 10 minutes dissociation phase. [0175] Cross-reactivity with mouse HER3 receptor and with other human ErbB receptors. […] After a wash in FACS buffer, an anti-mouse IgG conjugated with Phycoerythrin (PE, Becton Dickinson) was added and cells were analyzed by a FACSCalibur (Becton Dickinson). […] After 2 washes with PBS, 0.05% Tween20, the signal was measured by incubation with a biotinylated goat anti-NRG-1β antibody (RnD Systems) and Streptavidin conjugated with peroxidase and utilizing an HRP substrate (Pierce). Data were acquired with an ELISA reader at 450 nm. […]

mouse HER3 [5] = target: T3, mouse HER3; test: flow cytometry on CHO cells transiently transfected with mouse HER3

T2 sequence (P21860 20-643): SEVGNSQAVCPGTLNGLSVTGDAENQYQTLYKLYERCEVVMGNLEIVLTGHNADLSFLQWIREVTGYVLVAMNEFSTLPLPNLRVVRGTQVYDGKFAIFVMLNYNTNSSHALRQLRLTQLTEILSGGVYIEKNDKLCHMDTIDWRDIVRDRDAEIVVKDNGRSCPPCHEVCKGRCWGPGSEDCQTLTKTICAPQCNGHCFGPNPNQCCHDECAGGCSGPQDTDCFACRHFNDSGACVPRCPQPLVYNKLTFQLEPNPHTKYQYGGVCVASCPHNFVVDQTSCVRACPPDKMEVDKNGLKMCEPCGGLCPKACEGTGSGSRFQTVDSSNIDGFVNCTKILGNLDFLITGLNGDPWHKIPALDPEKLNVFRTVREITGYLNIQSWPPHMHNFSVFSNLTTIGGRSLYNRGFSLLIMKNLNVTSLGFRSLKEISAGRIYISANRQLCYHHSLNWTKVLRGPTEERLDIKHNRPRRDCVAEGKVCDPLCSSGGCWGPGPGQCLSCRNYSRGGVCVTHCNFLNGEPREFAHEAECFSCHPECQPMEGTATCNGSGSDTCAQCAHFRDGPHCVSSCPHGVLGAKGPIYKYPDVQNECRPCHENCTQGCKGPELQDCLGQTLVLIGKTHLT
T4 sequence (Q15303 26-1308): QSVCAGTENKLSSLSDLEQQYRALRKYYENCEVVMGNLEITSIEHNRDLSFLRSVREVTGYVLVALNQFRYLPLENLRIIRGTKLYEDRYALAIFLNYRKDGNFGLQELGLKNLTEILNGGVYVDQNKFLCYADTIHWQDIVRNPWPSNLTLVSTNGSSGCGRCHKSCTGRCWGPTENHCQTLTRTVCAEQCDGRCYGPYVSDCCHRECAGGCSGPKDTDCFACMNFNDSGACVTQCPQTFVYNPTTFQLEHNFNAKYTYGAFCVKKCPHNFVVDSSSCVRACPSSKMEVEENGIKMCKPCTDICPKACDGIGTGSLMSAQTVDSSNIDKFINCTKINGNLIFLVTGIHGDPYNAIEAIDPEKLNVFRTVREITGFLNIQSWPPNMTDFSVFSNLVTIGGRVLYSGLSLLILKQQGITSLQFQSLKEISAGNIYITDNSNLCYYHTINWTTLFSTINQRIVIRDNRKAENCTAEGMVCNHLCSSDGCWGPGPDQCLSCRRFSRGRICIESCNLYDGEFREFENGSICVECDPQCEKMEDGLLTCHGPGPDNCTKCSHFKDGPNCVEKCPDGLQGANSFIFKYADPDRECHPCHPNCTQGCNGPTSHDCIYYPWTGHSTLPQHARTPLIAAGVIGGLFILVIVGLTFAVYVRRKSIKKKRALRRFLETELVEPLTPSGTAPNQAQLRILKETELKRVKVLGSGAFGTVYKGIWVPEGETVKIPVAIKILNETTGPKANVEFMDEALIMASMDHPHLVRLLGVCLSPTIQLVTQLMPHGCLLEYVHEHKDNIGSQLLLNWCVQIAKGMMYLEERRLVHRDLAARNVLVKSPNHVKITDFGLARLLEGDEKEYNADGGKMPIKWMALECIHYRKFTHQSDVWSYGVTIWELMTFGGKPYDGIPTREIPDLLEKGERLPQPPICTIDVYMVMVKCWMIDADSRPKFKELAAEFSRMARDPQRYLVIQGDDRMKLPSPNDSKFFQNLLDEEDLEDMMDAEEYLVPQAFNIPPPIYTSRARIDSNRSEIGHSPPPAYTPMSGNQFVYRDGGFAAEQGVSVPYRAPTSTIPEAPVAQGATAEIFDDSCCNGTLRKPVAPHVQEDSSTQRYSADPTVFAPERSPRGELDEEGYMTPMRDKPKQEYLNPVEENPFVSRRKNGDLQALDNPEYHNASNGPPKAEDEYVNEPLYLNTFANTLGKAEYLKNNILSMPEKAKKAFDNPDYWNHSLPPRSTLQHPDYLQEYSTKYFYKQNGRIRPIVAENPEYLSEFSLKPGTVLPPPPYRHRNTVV
T3 sequence (Q61526 20-1339): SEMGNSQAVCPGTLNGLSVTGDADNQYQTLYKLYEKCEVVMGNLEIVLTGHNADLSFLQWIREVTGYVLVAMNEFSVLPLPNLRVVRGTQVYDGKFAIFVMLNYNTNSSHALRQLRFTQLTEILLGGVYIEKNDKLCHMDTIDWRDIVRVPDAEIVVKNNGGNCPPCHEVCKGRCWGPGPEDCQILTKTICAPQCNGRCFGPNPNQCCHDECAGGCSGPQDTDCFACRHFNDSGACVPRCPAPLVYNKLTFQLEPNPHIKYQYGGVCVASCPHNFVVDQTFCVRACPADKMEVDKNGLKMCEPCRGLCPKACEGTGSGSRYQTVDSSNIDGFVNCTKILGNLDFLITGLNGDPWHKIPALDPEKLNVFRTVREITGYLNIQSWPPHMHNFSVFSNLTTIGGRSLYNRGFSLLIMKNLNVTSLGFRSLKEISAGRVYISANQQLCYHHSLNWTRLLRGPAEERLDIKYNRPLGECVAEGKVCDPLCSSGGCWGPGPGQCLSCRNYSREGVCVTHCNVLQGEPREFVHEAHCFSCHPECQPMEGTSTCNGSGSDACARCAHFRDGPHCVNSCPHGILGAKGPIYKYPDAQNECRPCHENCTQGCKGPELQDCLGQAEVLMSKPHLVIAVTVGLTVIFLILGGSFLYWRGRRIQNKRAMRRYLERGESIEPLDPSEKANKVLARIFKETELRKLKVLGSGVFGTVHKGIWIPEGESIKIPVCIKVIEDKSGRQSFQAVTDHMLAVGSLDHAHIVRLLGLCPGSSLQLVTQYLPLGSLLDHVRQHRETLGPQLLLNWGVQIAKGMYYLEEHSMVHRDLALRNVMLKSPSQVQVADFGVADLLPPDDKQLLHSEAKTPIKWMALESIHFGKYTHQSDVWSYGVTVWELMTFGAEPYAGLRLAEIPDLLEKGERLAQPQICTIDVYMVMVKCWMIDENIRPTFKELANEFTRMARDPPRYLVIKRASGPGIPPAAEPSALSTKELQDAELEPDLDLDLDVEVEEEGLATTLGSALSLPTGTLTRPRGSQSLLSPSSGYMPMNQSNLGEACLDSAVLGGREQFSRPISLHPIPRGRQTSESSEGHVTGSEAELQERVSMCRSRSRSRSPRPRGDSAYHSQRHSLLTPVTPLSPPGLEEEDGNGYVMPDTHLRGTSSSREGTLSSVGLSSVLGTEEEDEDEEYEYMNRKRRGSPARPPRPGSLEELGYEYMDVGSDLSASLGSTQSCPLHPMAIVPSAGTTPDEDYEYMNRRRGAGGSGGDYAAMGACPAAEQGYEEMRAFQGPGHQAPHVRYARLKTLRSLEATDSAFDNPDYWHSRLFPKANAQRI

binding result [1] | IC50 [2] [nM] | binding result (mouse HER3 [3]) | binding result (HER4) | binding result (HER1/EGFR) | binding result (HER2) | Kd [4] [nM] | binding result (mouse HER3 [5]) | Binder
binds | 1.1 | binds | no binding (tested: 10 µg/ml) | no binding (tested: 10 µg/ml) | no binding (tested: 10 µg/ml) | 7.4 |  | Antibody A3 (antibody, V domains shown, Murine monoclonal IgG from a hybridoma of BALB/c mice immunised with HER3 H584F DNA; also called A3 monoclonal antibody) VH: QVTLKESGPGKLQPSQTLSLTCSFSGFSLSTYGMGVGWIRQPLGKGLEWLANIWWNDDKYYNSALKSRLTISKDTSNNQVFLKISSVDTADAATYYCVQIANPYWYFDVWGAGTTVTVSS VL: DVLMTQTPLSLPVSLGDQASISCRSSQSIVHSYGNTYLEWYLQKPGQSPKLLIYRVSNRFSGVPDRFSGSGSGTDFTLKISRVEAEDLGVYYCFQGSHVPFTFGTGTKLEIKR
 | 2.8 |  | no binding (tested: 10 µg/ml) | no binding (tested: 10 µg/ml) | no binding (tested: 10 µg/ml) | 2.4 | no binding (tested: 10 µg/ml) | Antibody A4 (antibody, V domains shown, Murine monoclonal IgG with a kappa light chain, from a hybridoma; also called murine A4; A4 monoclonal antibody) VH: QVQLQQPGSELVRPGASVKLSCKASGYTFTIFWIHWVKQRPGQGLEWIGNIYPGSGGTNYDEKFKSKATLTVDTFSSTAYMQLSSLTSEDSAVYYCTRWGTGKDYWGQGTTLKVSS VL: QIVLTQSPAIMSASPGEKVTMTCRARSSVSSSYLHWYQQKPGSSPKLWIYSTSNLALGVPARFSGSGSGTSYSLTISSVEAEDAATYYCQQYDSSPFTFGTGTKLEIKR
